# Assay results: the Human Domainome abundance scans (Beltran et al. 2025)
# ± gives the uncertainty stated by the source.
# B1: Gamma-crystallin C, residues 4 to 79; numbered along this chain, P07315 (parent)
# chain: ITFYEDRAFQGRSYETTTDCPNLQPYFSRCNSIRVESGCWMLYERPNYQGQQYLLRRGEYPDYQQWMGLSDSIRSC
# Variants of: B1
# Assay: abundance fitness (aPCA) (normalised: wild type 0, dead -1); higher = more abundant; growth selection in yeast, the domain comes from the species named
# Settings: Homo sapiens
row,Variant,abundance fitness
1,ITFYEDRAFQGRSYETTTDCPNLQPYFSRCNSIRVESGCWMLYERPNYQGQQYLLRRGEYPDYQQFMGLSDSIRSC [W66F],-0.009 ± 0.11
2,ITFYEDLAFQGRSYETTTDCPNLQPYFSRCNSIRVESGCWMLYERPNYQGQQYLLRRGEYPDYQQWMGLSDSIRSC [R7L],-0.029 ± 0.12
3,ITFYEDRAFQGRSYETTTDCPNLQPYDSRCNSIRVESGCWMLYERPNYQGQQYLLRRGEYPDYQQWMGLSDSIRSC [F27D],-1.02 ± 0.38
4,ITFYEDRAFQGRSYETTTDCPNLQPYNSRCNSIRVESGCWMLYERPNYQGQQYLLRRGEYPDYQQWMGLSDSIRSC [F27N],-0.315 ± 0.17
5,ITFYEDRAFQGRSYETTTDCGNLQPYFSRCNSIRVESGCWMLYERPNYQGQQYLLRRGEYPDYQQWMGLSDSIRSC [P21G],0.053 ± 0.055
6,ITFYEDRAFQGRSYETTTDCHNLQPYFSRCNSIRVESGCWMLYERPNYQGQQYLLRRGEYPDYQQWMGLSDSIRSC [P21H],-0.164 ± 0.18
7,ITFYEDRAFQGRSYETTTDCPNLQPYFSRCNSIRVESGCWMLYERPNYQGQQYHLRRGEYPDYQQWMGLSDSIRSC [L54H],-0.068 ± 0.22
8,ITFYEDRAFQGRSYETTTDCPNLQPYFSRCNSIRVESGCWMLYERPNYQGQQYTLRRGEYPDYQQWMGLSDSIRSC [L54T],-0.234 ± 0.1
9,ITFYEDRAFQGRSYEATTDCPNLQPYFSRCNSIRVESGCWMLYERPNYQGQQYLLRRGEYPDYQQWMGLSDSIRSC [T16A],0.074 ± 0.091
10,ITFYEDRAFQGRSYETTTDCPNLQPYFSRCNSIRVTSGCWMLYERPNYQGQQYLLRRGEYPDYQQWMGLSDSIRSC [E36T],0.11 ± 0.27
11,ITFYEDRAFQGRSYETTTDCPNLQPYFSRCNSIRVKSGCWMLYERPNYQGQQYLLRRGEYPDYQQWMGLSDSIRSC [E36K],-0.074 ± 0.48
12,ITFYEDRAFQGRSYETTTDCPNLQPYFSRCNSIRVRSGCWMLYERPNYQGQQYLLRRGEYPDYQQWMGLSDSIRSC [E36R],-0.069 ± 0.075
13,ITFYEDRAFQGRSYETTTDCPNLQPYFSRCNSIRVESGCWMLFERPNYQGQQYLLRRGEYPDYQQWMGLSDSIRSC [Y43F],-0.15 ± 0.15
14,ITFYEDRAFQGRSYETTTDCPNLQPYFSRCNSIRVESGCWMLYERPNYQGQQYLLRRGEYPDYQQWMGLSDSERSC [I73E],-0.655 ± 0.2
15,ITFYEDRGFQGRSYETTTDCPNLQPYFSRCNSIRVESGCWMLYERPNYQGQQYLLRRGEYPDYQQWMGLSDSIRSC [A8G],0.053 ± 0.1
16,ITFYEDRAFQGRSYETTTDCPNLQPYFSRCNSIRVESGCWMLYERPNYQGQQYLLRGGEYPDYQQWMGLSDSIRSC [R57G],0.051 ± 0.066
17,ITFYEDRAFQGRSYETTTDCPNLQPYFSRCNSIRVESGCWMLYERPNYQGQQYLLRIGEYPDYQQWMGLSDSIRSC [R57I],-0.053 ± 0.16
18,ITFYEDRAFQGRSYETTQDCPNLQPYFSRCNSIRVESGCWMLYERPNYQGQQYLLRRGEYPDYQQWMGLSDSIRSC [T18Q],-0.333 ± 0.15

row,Variant,abundance fitness
1,ITFYEDRAFQGRSYETTTDCPNLQPYFSRCNSIRVESGCWMLYERPNYQGQWYLLRRGEYPDYQQWMGLSDSIRSC [Q52W],-0.141 ± 0.13
2,ITFYEDRAFQGRSYETTTDCPNLQPYFSRCNSIRVESGCWMLYERPNYMGQQYLLRRGEYPDYQQWMGLSDSIRSC [Q49M],-0.115 ± 0.11
3,ITFYEDRAFQGRSYETTTDCPNLQPYFSRCNSIRVESGCWMLYERPNYQGQQKLLRRGEYPDYQQWMGLSDSIRSC [Y53K],-0.026 ± 0.12
4,ITFYEDRAFQGREYETTTDCPNLQPYFSRCNSIRVESGCWMLYERPNYQGQQYLLRRGEYPDYQQWMGLSDSIRSC [S13E],-0.104 ± 0.09
5,ITFYEDRAFQGRSYETTTDCPQLQPYFSRCNSIRVESGCWMLYERPNYQGQQYLLRRGEYPDYQQWMGLSDSIRSC [N22Q],-0.046 ± 0.12
6,ITFYEDRAFQGRSYETTTDCPNLQPYFSRCNSIRVESGCWMLYERPNYQGQQYLLRRGEYPDYQQWMPLSDSIRSC [G68P],-0.02 ± 0.069
7,ITFYEDRAFQGRSYETTTDCPNLQPYFSRCNSIRVESGCWMQYERPNYQGQQYLLRRGEYPDYQQWMGLSDSIRSC [L42Q],-0.888 ± 0.19
8,ITFYEDRAFQGRSYETTTDCPNLQPYFSRCNSIRVESICWMLYERPNYQGQQYLLRRGEYPDYQQWMGLSDSIRSC [G38I],-0.202 ± 0.15
9,ITFYEDRAFQGRSYETTTDCPNLQPYFSRCNSIRVESGCWMLYERPNYQGQQYLLTRGEYPDYQQWMGLSDSIRSC [R56T],0.071 ± 0.085
10,ITFYEDRAFQGRSYETTTDCPNLQPYFPRCNSIRVESGCWMLYERPNYQGQQYLLRRGEYPDYQQWMGLSDSIRSC [S28P],-0.115 ± 0.12
11,ITFYEDRAFQGRSYETTTDCPNLQPYFQRCNSIRVESGCWMLYERPNYQGQQYLLRRGEYPDYQQWMGLSDSIRSC [S28Q],-0.057 ± 0.17
12,ITFYEDRAFQGRSYETTTDCPNLQPYFSRCNSIRVESGCWMLYERPNYQGQQYLLRRGEYPDYQQWMGLSDSIRSH [C76H],-0.574 ± 0.092
13,ITFYEDRAFQGRSYETTTDCPNLQPYFSRCNSIRVESGCWMLYERPNYQGQQYLLRRGEYPDYQQWMGLSDFIRSC [S72F],0.119 ± 0.084
14,ITFYEDRAFQGRSYETTTDCPNLQPYFSRCNSIRVESGCWMLYFRPNYQGQQYLLRRGEYPDYQQWMGLSDSIRSC [E44F],-0.414 ± 0.31
15,ITFYEDRAFQGRSYETTTDCPNLQPYFSRCNSIRVESGCWMLYHRPNYQGQQYLLRRGEYPDYQQWMGLSDSIRSC [E44H],-0.137 ± 0.16
16,ITFYEDRAFQGRSYETTTDCPNLQPYFSRCNSIRVESGCWMLYLRPNYQGQQYLLRRGEYPDYQQWMGLSDSIRSC [E44L],-0.006 ± 0.19
17,ITFYEDRAFQGRSYETTTDCPNLQPYFSRCNSICVESGCWMLYERPNYQGQQYLLRRGEYPDYQQWMGLSDSIRSC [R34C],-0.107 ± 0.11
18,ITFYEDRAFQGRSYETTTDCPNGQPYFSRCNSIRVESGCWMLYERPNYQGQQYLLRRGEYPDYQQWMGLSDSIRSC [L23G],-0.727 ± 0.12
